In the supplement of paper PMC10724198 one finds protein stability index data, which are given here for 67 sequences.

The data set concerns Saccharomyces cerevisiae. The data set is described as follows: protein stability index of tFT-peptide fusion (C-terminal peptide) (PSI (0-1 scale)); higher = more stable (slower turnover). The note with it: temperature: 30 C. The procedure:
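MPS profiling in S. cerevisiae of the yeast C-terminome library: the last 12 aa of each annotated ORF are fused to the C-terminus of a sfGFP-mCherry timer, after a GGGS linker. Cells are FACS-sorted into 8 mCherry/sfGFP bins and deep-sequenced. PSI runs from 0 (unstable) to 1 (stable); wild type and das1Δ backgrounds, two technical replicates each.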

The mark [1] stands for this setting: genetic background: das1 deletion.

± gives the standard deviation of the averaged measurements.

Consider IFRDYFYKSPSP [PIG1 C-terminal 12 aa], for which the protein stability index was 0.739 ± 0.0098 under setting [1] and 0.763 ± 0.034 (genetic background: wild type).

With IFSSLVHYCNAG [LST4 C-terminal 12 aa], the protein stability index worked out at 0.729 ± 0.013 under setting [1] and 0.73 ± 0.0085 (genetic background: wild type).

On to IFWLALIYNAIQ [LOH1 C-terminal 12 aa], for which the protein stability index is, setting by setting: under setting [1], 0.479 ± 0.016; (genetic background: wild type) 0.43 ± 0.027.

As to IGDFFKNLNMAK [NUP159 C-terminal 12 aa], the protein stability index was found to be 0.715 ± 0.026 under setting [1] and 0.743 ± 0.054 (genetic background: wild type).

Take IGGLLKPSELDD [CRM1 C-terminal 12 aa]: the protein stability index reads like this: under setting [1], 0.726 ± 0.032; (genetic background: wild type) 0.696 ± 0.033.

With IGWSVFAEWLCV [CYK3 C-terminal 12 aa], the protein stability index by setting is: under setting [1], 0.504 ± 0.02; (genetic background: wild type) 0.5137 ± 0.003.

On to IHRSVSELSRLH [MBB1 C-terminal 12 aa], for which the protein stability index reads like this: under setting [1], 0.705 ± 0.023; (genetic background: wild type) 0.689 ± 0.025.

As for IHSTKEEKNCNH [YDR095C C-terminal 12 aa], the protein stability index is 0.712 ± 0.017 under setting [1] and 0.683 ± 0.029 (genetic background: wild type).

For the sequence IIAIVFKILSPN [FAR10 C-terminal 12 aa], the protein stability index under setting [1] is 0.32 ± 0.023 and the protein stability index (genetic background: wild type) was 0.347 ± 0.031.

On to IIFVVLLCKKSR [ASG7 C-terminal 12 aa], for which the protein stability index worked out at 0.299 ± 0.019 under setting [1] and 0.309 ± 0.019 (genetic background: wild type).

IIQQNLKKIGII [GPA1 C-terminal 12 aa]: the protein stability index was found to be 0.696 ± 0.02 under setting [1] and 0.195 ± 0.011 (genetic background: wild type).

Consider IITGSTSTSSSN [MED8 C-terminal 12 aa], for which the protein stability index is, setting by setting: under setting [1], 0.671 ± 0.017; (genetic background: wild type) 0.7067 ± 0.00076.

For the sequence IKELENSRHEQS [MNN1 C-terminal 12 aa], the protein stability index was found to be 0.713 ± 0.049 under setting [1] and 0.6866 ± 7.9e-05 (genetic background: wild type).

Take IKPSAEVHINAL [VMA10 C-terminal 12 aa]: the protein stability index under setting [1] was determined as 0.686 ± 0.011 and the protein stability index (genetic background: wild type) was determined as 0.743 ± 0.092.

IKPSWENEKNIS [ARG2 C-terminal 12 aa] gave a protein stability index under setting [1] of 0.69 ± 0.02 and a protein stability index (genetic background: wild type) of 0.684 ± 0.028.

ILGAYLIDCVCC [YGL069C C-terminal 12 aa]: the protein stability index by setting is: under setting [1], 0.576 ± 0.045; (genetic background: wild type) 0.644 ± 0.1.

Take ILGNMEKKKNQD [EPS1 C-terminal 12 aa]: the protein stability index runs as follows: under setting [1], 0.733 ± 0.021; (genetic background: wild type) 0.751 ± 0.013.

On to ILWLKLEKRIEN [YLR339C C-terminal 12 aa], for which the protein stability index by setting is: under setting [1], 0.711 ± 0.025; (genetic background: wild type) 0.703 ± 0.01.

For IMLTLLMFTGAV [PLB3 C-terminal 12 aa], the protein stability index reads like this: under setting [1], 0.402 ± 0.0044; (genetic background: wild type) 0.396 ± 0.0091.

INIQQFAALLSK [CMD1 C-terminal 12 aa]: the protein stability index reads like this: under setting [1], 0.66 ± 0.0085; (genetic background: wild type) 0.68 ± 0.0055.

As for IPAKKTKISLDY [ELP4 C-terminal 12 aa], the protein stability index was 0.6845 ± 0.0032 under setting [1] and 0.677 ± 0.018 (genetic background: wild type).

For the sequence IPELHNLKPTCV [YBR238C C-terminal 12 aa], the protein stability index runs as follows: under setting [1], 0.67 ± 0.012; (genetic background: wild type) 0.687 ± 0.016.

As to IPMTLTTLSTVF [UPA2 C-terminal 12 aa], the protein stability index was 0.619 ± 0.0083 under setting [1] and 0.628 ± 0.012 (genetic background: wild type).

For IQKLEEARNPQF [UPS1 C-terminal 12 aa], the protein stability index reads like this: under setting [1], 0.704 ± 0.046; (genetic background: wild type) 0.718 ± 0.034.

Regarding IRRHAYYNQDDD [SLA2 C-terminal 12 aa], the protein stability index by setting is: under setting [1], 0.677 ± 0.02; (genetic background: wild type) 0.664 ± 0.0037.

Regarding ITERLFNAALDD [YBR232C C-terminal 12 aa], the protein stability index is 0.7089 ± 0.0038 under setting [1] and 0.708 ± 0.018 (genetic background: wild type).

For “ITGLKNNIQKCS [YER068C-A C-terminal 12 aa]”, the protein stability index was determined as 0.688 ± 0.0055 under setting [1] and 0.253 ± 0.014 (genetic background: wild type).

Regarding ITHLKAILPKYL [CCA1 C-terminal 12 aa], the protein stability index runs as follows: under setting [1], 0.695 ± 0.0085; (genetic background: wild type) 0.324 ± 0.0095.

The sequence ITSLKSDEYLVQ [RET2 C-terminal 12 aa] had a protein stability index under setting [1] of 0.73 ± 0.046 and a protein stability index (genetic background: wild type) of 0.724 ± 0.085.

Take IVHKSNFINNKK [OXA1 C-terminal 12 aa]: the protein stability index by setting is: under setting [1], 0.7224 ± 0.0042; (genetic background: wild type) 0.6943 ± 0.0055.

As to IVLPMIKDYLFS [HLJ1 C-terminal 12 aa], the protein stability index stood at 0.678 ± 0.018 under setting [1] and 0.702 ± 0.0079 (genetic background: wild type).

As to IWKEVKRHQDFA [ATG20 C-terminal 12 aa], the protein stability index by setting is: under setting [1], 0.7235 ± 0.0023; (genetic background: wild type) 0.734 ± 0.0089.

For IWKPAGNLVGHS [MSI1 C-terminal 12 aa], the protein stability index by setting is: under setting [1], 0.698 ± 0.013; (genetic background: wild type) 0.7019 ± 0.0026.

Regarding IYDWAGEYPLAV [SHM2 C-terminal 12 aa], the protein stability index is, setting by setting: under setting [1], 0.707 ± 0.026; (genetic background: wild type) 0.737 ± 0.0049.

Consider IYHKDGNKVLKE [YDR391C C-terminal 12 aa], for which the protein stability index by setting is: under setting [1], 0.706 ± 0.053; (genetic background: wild type) 0.6606 ± 0.0043.

Take IYKLEYYLLTMQ [YOR199W C-terminal 12 aa]: the protein stability index by setting is: under setting [1], 0.574 ± 0.011; (genetic background: wild type) 0.526 ± 0.034.

For IYRRRKNKIFFW [RCK1 C-terminal 12 aa], the protein stability index worked out at 0.705 ± 0.012 under setting [1] and 0.692 ± 0.045 (genetic background: wild type).

With KAAINQQSTPLN [RPH1 C-terminal 12 aa], the protein stability index came out at 0.676 ± 0.016 under setting [1] and 0.728 ± 0.053 (genetic background: wild type).

Take KAKFEGKKIKFD [BUD22 C-terminal 12 aa]: the protein stability index is, setting by setting: under setting [1], 0.678 ± 0.011; (genetic background: wild type) 0.7092 ± 0.0046.

For KALIQRKGGKLE [RPL26A C-terminal 12 aa], the protein stability index runs as follows: under setting [1], 0.6757 ± 0.0023; (genetic background: wild type) 0.688 ± 0.037.

Take KDEDEEADEDMK [PRE9 C-terminal 12 aa]: the protein stability index runs as follows: under setting [1], 0.711 ± 0.033; (genetic background: wild type) 0.694 ± 0.014.

KDRCGNVPHQSR [MRN1 C-terminal 12 aa]: the protein stability index is, setting by setting: under setting [1], 0.706 ± 0.0088; (genetic background: wild type) 0.716 ± 0.08.

Turning to KEASRRFDAGKI [SOD2 C-terminal 12 aa], the protein stability index came to 0.6778 ± 0.0059 under setting [1] and 0.6795 ± 0.0053 (genetic background: wild type).

As to KEKKDKKKKSKD [NOP56 C-terminal 12 aa], the protein stability index stood at 0.686 ± 0.025 under setting [1] and 0.661 ± 0.022 (genetic background: wild type).

For KELEFGLDRKYF [SLT2 C-terminal 12 aa], the protein stability index came out at 0.6989 ± 0.0057 under setting [1] and 0.68 ± 0.04 (genetic background: wild type).

Regarding KELVKRRIVGEV [AEP3 C-terminal 12 aa], the protein stability index by setting is: under setting [1], 0.6815 ± 0.0042; (genetic background: wild type) 0.72 ± 0.064.

As to KGARSRFQKSYR [RPS16A C-terminal 12 aa], the protein stability index is, setting by setting: under setting [1], 0.707 ± 0.011; (genetic background: wild type) 0.7188 ± 0.0055.

For the sequence KGTFLANLTDLI [SWF1 C-terminal 12 aa], the protein stability index reads like this: under setting [1], 0.7347 ± 0.0012; (genetic background: wild type) 0.665 ± 0.014.

As to KHGTMQFYWRKT [YOR225W C-terminal 12 aa], the protein stability index under setting [1] was determined as 0.692 ± 0.0073 and the protein stability index (genetic background: wild type) was found to be 0.386 ± 0.003.

Regarding KHGVSAVKRYLR [CBP1 C-terminal 12 aa], the protein stability index under setting [1] came out at 0.6765 ± 0.0054 and the protein stability index (genetic background: wild type) came out at 0.68 ± 0.0089.

KKDKPEGWDRLP [KTR6 C-terminal 12 aa]: the protein stability index is, setting by setting: under setting [1], 0.728 ± 0.046; (genetic background: wild type) 0.711 ± 0.0073.

As for KKHSMKSRFKPY [YNL035C C-terminal 12 aa], the protein stability index is, setting by setting: under setting [1], 0.696 ± 0.029; (genetic background: wild type) 0.712 ± 0.0099.

As for KKKEDKGGLQRS [VHS3 C-terminal 12 aa], the protein stability index was determined as 0.6842 ± 0.0022 under setting [1] and 0.697 ± 0.061 (genetic background: wild type).

Turning to KKKNRSKIKFNY [PTH4 C-terminal 12 aa], the protein stability index was determined as 0.724 ± 0.021 under setting [1] and 0.589 ± 0.011 (genetic background: wild type).

On to KKSPGGPRQRIK [MAP1 C-terminal 12 aa], for which the protein stability index under setting [1] came to 0.694 ± 0.033 and the protein stability index (genetic background: wild type) worked out at 0.692 ± 0.046.

As to “KLEKLKAEKTRR [YDL085C-A C-terminal 12 aa]”, the protein stability index by setting is: under setting [1], 0.669 ± 0.01; (genetic background: wild type) 0.673 ± 0.031.

As to “KLMEAIFRIRTI [YKL106C-A C-terminal 12 aa]”, the protein stability index is 0.7668 ± 0.0015 under setting [1] and 0.152 ± 0.0039 (genetic background: wild type).

As for KLSNWLFGWNDL [ASM4 C-terminal 12 aa], the protein stability index is, setting by setting: under setting [1], 0.753 ± 0.019; (genetic background: wild type) 0.746 ± 0.052.

In turn, KLVDVRKVYYSS [MRPS5 C-terminal 12 aa] yielded a protein stability index under setting [1] of 0.7071 ± 0.0029 and a protein stability index (genetic background: wild type) of 0.6234 ± 0.0043.

For the sequence KLYKNSDFNSEK [RRG7 C-terminal 12 aa], the protein stability index stood at 0.7 ± 0.0014 under setting [1] and 0.694 ± 0.017 (genetic background: wild type).

Take KMDKRAKTSDSA [RPL8B C-terminal 12 aa]: the protein stability index by setting is: under setting [1], 0.698 ± 0.0049; (genetic background: wild type) 0.6802 ± 0.0027.

For the sequence KNLADIHKIMGF [MSW1 C-terminal 12 aa], the protein stability index is, setting by setting: under setting [1], 0.6849 ± 0.00012; (genetic background: wild type) 0.709 ± 0.052.

With KNVTINTRETPL [DAL81 C-terminal 12 aa], the protein stability index is, setting by setting: under setting [1], 0.694 ± 0.018; (genetic background: wild type) 0.6712 ± 0.0061.

Consider KPDSTAVRNEDE [YNR065C C-terminal 12 aa], for which the protein stability index came out at 0.7 ± 0.012 under setting [1] and 0.66 ± 0.072 (genetic background: wild type).

For KQAIYTRAAASE [RPS25B C-terminal 12 aa], the protein stability index is, setting by setting: under setting [1], 0.682 ± 0.054; (genetic background: wild type) 0.69 ± 0.0061.

As to KQGKKKKDCVIM [SKT5 C-terminal 12 aa], the protein stability index came out at 0.7193 ± 0.0022 under setting [1] and 0.696 ± 0.047 (genetic background: wild type).

With KQKEAWYSFLFK [SCO1 C-terminal 12 aa], the protein stability index reads like this: under setting [1], 0.7138 ± 0.0035; (genetic background: wild type) 0.68151 ± 0.00058.
